“And” between values parts separate entries of the source, which are not always exact repeats. Equal values may be shown once.
B1: His-tagged Burkholderia cenocepacia OrbS (iron starvation ECF σ factor) (natural protein, UniProt B4E986 1-222, looked up)
chain: MAMAEVLDRPAAAAANPFLGSYPDLPPRAAPRARRASEPRAQGALLDVLISHRAMLVNVARGFVGCASRAEDVVHDVFVKLVEFPNQDAVRQPVAYVTRMVRNASIDACRRQNLENVYHTEEDDGFDVPSPEPTPEAALMTRDTLRRVWAALDDLPARSRAAFEMVRLREETLQTAARALNVSQTLVHFMVRDAERHCAECLDACHRGVACPVFLGGRARRR
notes: also called σ^OrbS; BCAL1688

Key:
[1] = target: His-tagged OrbS-CtetraA (OrbS with all four C-terminal cysteine residues replaced by alanine); assay: BLI
[2] = target: T1, E. coli core RNA polymerase (core RNAP, α2ββ'ω) (E. coli, UniProt P0A7Z4 1-329; P0A8V2 1-1342; P0A8T7 1-1407; P0A800 1-91); assay: BLI; conditions: both partners purified
T1 construct: RNA polymerase subunit alpha, E. coli; RNA polymerase subunit beta, E. coli; RNA polymerase subunit beta', E. coli; RNA polymerase subunit omega, E. coli; Commercial core enzyme (NEB); also called E. coli RNAP core enzyme; core E. coli RNAP; source: bought: NEB; copies: 2 + + +

| Molecule | Kd [1] | kon [1] | Kd [2] | koff [2] | kon [2] |
| --- | --- | --- | --- | --- | --- |
| E. coli core RNA polymerase (core RNAP, α2ββ'ω) (from UniProt P0A7Z4 1-329; P0A8V2 1-1342; P0A8T7 1-1407; P0A800 1-91) (complex) | 20 nM and 160 nM | 15000 M⁻¹ s⁻¹ and 9100 M⁻¹ s⁻¹ | – | – | – |
| B1 | – | – | 83 nM | 0.00045 s⁻¹ | 5400 M⁻¹ s⁻¹ |

— publication PMC9023288, “The Burkholderia cenocepacia iron starvation σ factor, OrbS, possesses an on-board iron sensor” (Nucleic Acids Research, 2022)
